In paper PMC3671127:

Columns and labels:
[1] = target: HIV-1 Pol polyprotein with a catalytically dead protease (sPol-PR_(D25N)) (HIV-1 (IIIB)); experiment: AlphaScreen or HTRF; 33 nM GST-sPol-PR_(D25N) and 33 nM His-MBP-sPol-PR_(D25N) kept constant, CX05045 (raltegravir, DMSO as controls) titrated 1:10 from 100 uM; 25 mM Tris/HCl pH 7.5, 150 mM NaCl, 1 mM dithiothreitol, 1 mM MgCl2, 0.1% BSA, 0.1% Tween 20; overnight at 4°C, then glutathione donor and Ni-chelate acceptor beads 2 h at 23°C
[2] = target: HIV-1 integrase, wild type, fluorescently labelled (IN-mTFP1 and IN-mVenus) in virions (HIV-1) (UniProt P12497); experiment: FRET or BRET; single virus FRET by acceptor photobleaching (TIRF microscopy) on fixed virions with IN-mTFP1 donor and IN-mVenus acceptor; FRET ratio = FD/FDA; virions produced in the presence of CX05045 (5-fold EC50)
[3] = target: HIV-1 integrase, wild type, fluorescently labelled (IN-mTFP1 and IN-mVenus) in virions (HIV-1) (UniProt P12497); experiment: FRET or BRET; single virus FRET by acceptor photobleaching (TIRF microscopy) on fixed virions with IN-mTFP1 donor and IN-mVenus acceptor; FRET ratio = FD/FDA, unity means no FRET; virions produced in the presence of DMSO
[4] = target: HIV-1 integrase, wild type, fluorescently labelled (IN-mTFP1 and IN-mVenus) in virions (HIV-1) (UniProt P12497); experiment: FRET or BRET; single virus FRET by acceptor photobleaching (TIRF microscopy) on fixed virions with IN-mTFP1 donor and IN-mVenus acceptor; FRET ratio = FD/FDA; virions produced in the presence of raltegravir (5-fold EC50)
[5] = target: HIV-1 integrase A128T (LEDGIN-resistant), fluorescently labelled (IN_(A128T)-mTFP1 and IN_(A128T)-mVenus) in virions (HIV-1); experiment: FRET or BRET; single virus FRET by acceptor photobleaching (TIRF microscopy) on fixed virions with IN-mTFP1 donor and IN-mVenus acceptor; FRET ratio = FD/FDA; virions produced in the presence of CX05045 (5-fold EC50)
[6] = target: HIV-1 integrase A128T (LEDGIN-resistant), fluorescently labelled (IN_(A128T)-mTFP1 and IN_(A128T)-mVenus) in virions (HIV-1); experiment: FRET or BRET; single virus FRET by acceptor photobleaching (TIRF microscopy) on fixed virions with IN-mTFP1 donor and IN-mVenus acceptor; FRET ratio = FD/FDA, unity means no FRET; virions produced in the presence of DMSO

Substance: HIV-1 Pol polyprotein with a catalytically dead protease (sPol-PR_(D25N)) (natural protein)
- EC50 of CX05045 for the enhancement of Pol-Pol multimerization [1]: 8.7 nM

Substance: HIV-1 integrase, wild type, fluorescently labelled (IN-mTFP1 and IN-mVenus) in virions (from UniProt P12497 1148-1435) (enzyme)
- mean FRET ratio (CX05045) [2]: 1.43
- mean FRET ratio (DMSO) [3]: 1.25
- mean FRET ratio (raltegravir) [4]: 1.22

Substance: HIV-1 integrase A128T (LEDGIN-resistant), fluorescently labelled (IN_(A128T)-mTFP1 and IN_(A128T)-mVenus) in virions (enzyme)
- mean FRET ratio (CX05045) [5]: 1.23
- mean FRET ratio (DMSO) [6]: 1.26
